{"source": "patent US20130196377A1", "about": "(SAMSUNG ELECTRONICS, published 2013)", "binders": {"B1": {"name": "(E2)2, monospecific antibody recognizing the EGFR (antibody, human IgG1, V domains shown)", "VL": "DIQMTQSPTSLSASVGDRVTITCRASQWIGNLLDWYQQKPGEAPKLLIYYASFLQSGVPSRFSGGGFGTDFTLTISSLQPEDFATYYCQQANPAPLTFGQGTKVEIKR", "notes": "Homodimer of E2-hinge-Fc chains, inferred from the label (E2)2"}}, "target": "T1, human EGFR extracellular domain (Prospec) (human, UniProt P00533 25-645)", "T1 construct": "extracellular domain; Bought protein; also called epidermal growth factor receptor", "assay": "SPR (Biacore T100); antibody captured on anti-human IgG CM5 chip, EGFR extracellular domain 6.25-100 nM as analyte; 1:1 Langmuir model", "excerpt": "1× HBS-EP (GE healthcare) was used as a running buffer and a dilution buffer. About 5,000 RU (response unit) of an Anti-human IgG antibody (Jackson Immuno Research) were immobilized on a surface of a CM5 chip (GE healthcare) by standard amine-coupling. […] A contact time (association phase) was 180 seconds, and a separation time (washing with running buffer) was 600 seconds. After each binding cycle was terminated, Glycine-HCl pH 2.0 (GE healthcare) as a regeneration solution was flown onto the chip at a flow rate of 50 μL/min for 1 minute to remove the combined antigen and antibody from the chip. A sensorgram was obtained therefrom such that a fitting process was performed in BIA evaluation software by using a 1:1 Langmuir binding model for the EGFR case and by using a bivalent analyte model for the VEGF case.", "data": [{"binder": "B1", "values": [{"measurement": "Kd", "result": 4.91, "unit": "nM"}]}]}
